In patent US20210395318A1 (Molecular Partners, published 2021):

Key:
[1] = molecular target: human CD40 on primary human B cells or human monocyte-derived dendritic cells (human, UniProt P25942 21-277); assay: cell-based or functional assay
cynomolgus FAP = molecular target: T1, cynomolgus FAP (cynomolgus); assay: SPR (ProteOn XPR36), FAP immobilized on GLC chip, Protein #5 as analyte, PBST, 1:1 Langmuir
T1 chain: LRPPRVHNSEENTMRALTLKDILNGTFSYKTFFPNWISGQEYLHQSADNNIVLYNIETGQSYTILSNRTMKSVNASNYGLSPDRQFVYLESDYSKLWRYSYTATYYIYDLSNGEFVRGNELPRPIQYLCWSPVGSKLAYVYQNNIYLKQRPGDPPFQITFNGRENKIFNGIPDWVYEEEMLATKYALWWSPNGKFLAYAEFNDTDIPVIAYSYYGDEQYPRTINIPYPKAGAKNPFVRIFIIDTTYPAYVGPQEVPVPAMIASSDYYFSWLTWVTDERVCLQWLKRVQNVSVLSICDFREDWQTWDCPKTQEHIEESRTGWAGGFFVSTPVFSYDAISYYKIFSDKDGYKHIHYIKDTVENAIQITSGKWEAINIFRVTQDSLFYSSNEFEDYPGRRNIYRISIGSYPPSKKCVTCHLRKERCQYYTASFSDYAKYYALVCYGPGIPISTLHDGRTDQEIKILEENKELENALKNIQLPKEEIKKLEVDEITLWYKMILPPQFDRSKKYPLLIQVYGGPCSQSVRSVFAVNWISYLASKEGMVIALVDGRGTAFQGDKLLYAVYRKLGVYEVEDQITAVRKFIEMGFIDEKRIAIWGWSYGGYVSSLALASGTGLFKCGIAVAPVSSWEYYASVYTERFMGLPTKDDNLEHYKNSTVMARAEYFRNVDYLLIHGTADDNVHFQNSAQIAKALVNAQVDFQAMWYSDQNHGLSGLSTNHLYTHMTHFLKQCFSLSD
Procedure: (§1) All SPR measurements were performed using a ProteOn XPR36 instrument (BioRad) and a running buffer of PBS pH 7.4 containing 0.005% Tween 20® (PBST). The 1:1 Langmuir model was used for the fitting of SPR traces.
(§2) ProteOn setup for Protein #5 binding to FAP of different species. hFAP, cynomolgus FAP (cFAP) and mouse FAP (mFAP) were immobilized on a GLC chip (BioRad) in 10 mM Na Acetate buffer pH5.3 to a level of 1200 RU, 800 RU and 2000 RU, respectively. The interaction of FAP and Protein #5 was measured by applying Protein #5 in a serial dilution of […] and 3.13 nM with an association of 120 s and dissociation of 1800 s using a constant flow of 100 μl/min. The targets were regenerated using 10 mM glycine pH 2 and 124 mM H₃PO₄. The signals were double referenced against the PBST treated control lanes.

human FAP (recombinant) = molecular target: T2, human FAP (recombinant) (human, UniProt Q12884 26-760); assay: as above
T2 construct: also called hFAP; rhFAP
T2 sequence: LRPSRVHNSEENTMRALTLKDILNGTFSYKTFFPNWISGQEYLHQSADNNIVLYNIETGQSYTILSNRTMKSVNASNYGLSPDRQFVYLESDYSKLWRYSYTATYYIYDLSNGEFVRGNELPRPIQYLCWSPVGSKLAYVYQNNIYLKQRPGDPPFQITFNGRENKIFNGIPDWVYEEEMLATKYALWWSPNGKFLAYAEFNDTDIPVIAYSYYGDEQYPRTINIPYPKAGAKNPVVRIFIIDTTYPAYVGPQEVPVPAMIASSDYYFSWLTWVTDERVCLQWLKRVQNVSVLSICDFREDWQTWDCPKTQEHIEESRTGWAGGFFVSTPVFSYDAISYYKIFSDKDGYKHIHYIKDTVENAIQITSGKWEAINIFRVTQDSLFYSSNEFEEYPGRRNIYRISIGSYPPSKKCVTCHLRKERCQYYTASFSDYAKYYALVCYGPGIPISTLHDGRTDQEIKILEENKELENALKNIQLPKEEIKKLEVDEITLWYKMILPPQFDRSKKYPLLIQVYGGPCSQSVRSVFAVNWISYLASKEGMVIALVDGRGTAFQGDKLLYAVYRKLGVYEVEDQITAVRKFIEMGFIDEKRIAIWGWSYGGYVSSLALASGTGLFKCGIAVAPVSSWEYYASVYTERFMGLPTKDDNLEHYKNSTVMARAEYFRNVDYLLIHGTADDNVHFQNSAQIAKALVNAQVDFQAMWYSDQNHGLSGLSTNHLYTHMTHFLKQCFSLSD
Procedure: as §1, §2

mouse serum albumin [2] = molecular target: T3, mouse serum albumin (mouse, UniProt P07724 25-608); assay: SPR (ProteOn XPR36), Protein #5 captured on hFAP-coated GLC chip, serum albumin as analyte, PBST; flagged as overestimated, inaccurate fit
T3 construct: also called MSA
Procedure: as §1
(§3) ProteOn setup for Protein #5 binding to serum albumin of different species. First, human FAP (hFAP) was coated on a GLC chip (BioRad) to a level of 700 RU before 50 nM Protein #5 was immobilized as analyte for 120 s (dissociation of 0 s) at constant flow of 100 μl/min to a level of 120 RU. The binding of the serum albumin to Protein #5 was measured by injecting human serum albumin (HSA), cynomolgus serum albumin (CSA) and mouse serum albumin (MSA) in a serial dilution of 100, 33, 11 and 3.7 nM with an association of 120 s and a dissociation of 600 s at a constant flow of 100 μl/min. HSA, CSA and MSA binding was measured serially and the hFAP/Protein #5 complex was regenerated each time with 10 mM glycine pH2 for 18 s at a flow of 100 μl/min. Thus, Protein #5 had to be re-immobilized on hFAP after each regeneration step. […] The kinetic was calculated on the first 300 s of dissociation.

mouse serum albumin [3] = molecular target: T3, mouse serum albumin; assay: SPR (ProteOn XPR36), Protein #5 captured on hFAP-coated GLC chip, serum albumin as analyte, PBST; flagged as overestimated, inaccurate fit; MSA as analyte; patent flags the fit as inaccurate (Chi^2/Rmax 13.1 %) and the KD as overestimated due to nonspecific binding of MSA on the chip
Procedure: as §1, §3

human CD40 on primary human B cells or human monocyte-derived dendritic cells, sequence (P25942 21-277 H80K/K81H limits assumed): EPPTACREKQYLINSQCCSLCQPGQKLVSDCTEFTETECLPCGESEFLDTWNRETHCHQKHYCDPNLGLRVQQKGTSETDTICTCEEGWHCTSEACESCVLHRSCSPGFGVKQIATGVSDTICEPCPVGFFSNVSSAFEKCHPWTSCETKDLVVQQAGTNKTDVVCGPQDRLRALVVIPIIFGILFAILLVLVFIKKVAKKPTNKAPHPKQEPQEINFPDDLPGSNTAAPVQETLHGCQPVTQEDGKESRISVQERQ

B1: DARPin Protein #5 (designed binder)
chain: GSDLGKKLLEAARAGQDDEVRELLKAGADVNAKDYFSHTPLHLAARNGHLKIVEVLLKAGADVNAKDFAGKTPLHLAAADGHLEIVEVLLKAGADVNAQDIFGKTPADIAADAGHEDIAEVLQKAAGSPTPTPTTPTPTPTTPTPTPTGSDLGKKLLEAARAGQDDEVRILLAAGADVNAKDVLGWTPLHLAAFEGHLEIVEVLLKAGADVNAKDKKGWTPLQLAARTGHLEIVEVLLKAGADVNAKDHIGATPLHLAAWQGHPEIVEVLLKAGADVNAQDKSGKTPADLAADAGHEDIAEVLQKAAGSPTPTPTTPTPTPTTPTPTPTGSDLGKKLLQAARAGQLDEVRELLKAGADVNAKDTWGFTPLHIAAESGHLEIVEVLLKAGADVNAKDVQGRTPLHIAAHSGHLEIVEVLLKAGADVNAKDFRGWTPLHLAAWSGHLEIVEILLKAGADVNAQDKSGKTPADLAARAGHQDIAEVLQKAAGSPTPTPTTPTPTPTTPTPTPTGSDLGKKLLQAARAGQLDEVRELLKAGADVNAKDTWGFTPLHIAAESGHLEIVEVLLKAGADVNAKDVQGRTPLHIAAHSGHLEIVEVLLKAGADVNAKDFRGWTPLHLAAWSGHLEIVEILLKAGADVNAQDKSGKTPADLAARAGHQDIAEVLQKAA
notes: also called SMA136; Molecule No. 1
EC50, upregulation of CD86 and CD69 in human B cells co-cultured with FAP-expressing CHO cells [1]: 40 to 70 pM
Kd (cynomolgus FAP): 339 pM
koff (cynomolgus FAP): 0.000146 s⁻¹
kon (cynomolgus FAP): 432000 M⁻¹ s⁻¹
Kd (human FAP (recombinant)): 307 pM
koff (human FAP (recombinant)): 0.000126 s⁻¹
kon (human FAP (recombinant)): 409000 M⁻¹ s⁻¹
koff (mouse serum albumin [2]): 0.0126 s⁻¹
kon (mouse serum albumin [2]): 315000 M⁻¹ s⁻¹
Kd (mouse serum albumin [3]): 40000 pM
